Laboratory results from US20230144203A1 (SHANGHAI SENHUI MEDICINE CO., LTD., priority 2020, published 2023).

Assays:
[1] = tested on: human diffuse large B-cell lymphoma WSU-DLCL2; assay: Test Example 3 nude mouse subcutaneous xenograft tumor efficacy
Description: Human diffuse large B-cell lymphoma WSU-DLCL2 cells were purchased from DSMZ. WSU-DLCL2 cells were cultured in a 10-cm petri dish with RPMI 1640 medium (Gibco) containing 10% fetal bovine serum, penicillin and streptomycin (GIBCO, Cat #15070-063) and incubated in an incubator at 37° C. with 5% CO2. Subculturing was carried out 2-3 times a week and cells were collected, counted and inoculated when the cells grew in long-term exponentially.
Female BALB/c-nu nude mice with a growth period of 28-35 days was purchased from Beijing Huafukang Biotechnology Co., Ltd. Production license No.: SCXK (Beijing) 2019-0008, animal certification No.: 1103221911012510. Housing environment: SPF grade.
Each nude mouse was subcutaneously inoculated with 2.0×10^7 WSU-DLCL2 cells, and after the tumor volume grew to −100 mm^3, the animals were grouped according to tumor volume (D0). The mice was administrated by intravenous injection (IV), and the administration volume was 10 mL/kg; specific dosages and schedules are shown in Table 3. The tumor volumes and body weights were measured twice a week and the results were recorded.
The experimental index is to study the influence of the drug on the tumor growth, and the specific index is T/C % or tumor growth inhibition TGI (%). Tumor diameters were measured twice weekly with a vernier caliper and tumor volume (V) was calculated according to the following formula:
where a and b represent length and width, respectively. T/C (%)=(T−T0)/(C−C0)×100, where T and C were tumor volumes at the end of the experiment; T0 and C0 were tumor volumes at the beginning of the experiment.
If the volume of tumor shrank compared with its initial volume, i.e., T<T0 or C<C0, it was defined as partial regression(PR) of tumor; if the tumor completely disappeared, it was defined as complete regression (CR) of tumor.
Unless otherwise indicated, comparison between tumor volumes of the two groups was made by two-tailed student's t-test, with P<0.05 defined as statistically significant difference.

human CD79B [2] = molecular target: T1, human CD79B (Homo sapiens, UniProt P40259); assay: FACS assay on purified anti-human CD79B mouse monoclonal antibodies (DOHH2 cells); format: binding
T1 construct: endogenous in cells; host or cells: DOHH2
T1 sequence (P40259 29-229): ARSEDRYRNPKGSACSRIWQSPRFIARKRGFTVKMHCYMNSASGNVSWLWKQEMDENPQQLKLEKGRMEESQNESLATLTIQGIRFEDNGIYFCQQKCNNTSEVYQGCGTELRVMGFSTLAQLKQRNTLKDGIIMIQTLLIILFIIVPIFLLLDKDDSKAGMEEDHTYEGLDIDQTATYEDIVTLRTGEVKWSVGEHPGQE
T1 sequence (P11912 33-226 partner): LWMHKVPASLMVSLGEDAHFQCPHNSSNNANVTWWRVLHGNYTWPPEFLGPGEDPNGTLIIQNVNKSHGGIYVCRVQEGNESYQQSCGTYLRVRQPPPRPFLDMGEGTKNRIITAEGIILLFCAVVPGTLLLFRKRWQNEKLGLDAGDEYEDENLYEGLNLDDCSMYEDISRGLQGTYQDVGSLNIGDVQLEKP
Description: (§1) 3) FACS assay on anti-human CD79B mouse monoclonal antibodies: after centrifugation, the cell suspension of DOHH2 was resuspended in PBS containing 0.1% BSA, counted, added with 100 μL of antibody diluted 1:10 at 100 nM and incubated at room temperature for 1 h. The cells were washed three times, then added with Anti-Mouse IgG (Fc specific)-FITC secondary antibody, and incubated at room temperature for 30 min in the dark. The cells were washed three times, gently resuspended in PBS containing 0.1% BSA, and then assayed using the machine.

human CD79B [3] = molecular target: T2, human CD79B (Homo sapiens, UniProt P40259); assay: ELISA of culture supernatant of anti-human CD79B hybridoma positive clones; format: binding; details: 1 μg/mL coated antigen
T2 construct: the extracellular region (ECD) of which comprises 159 amino acids (Met1-Asp159); human Fc domain (hFc) OR His tag; made in house; host or cells: 293F cells
T2 sequence (P40259 29-159 limits assumed): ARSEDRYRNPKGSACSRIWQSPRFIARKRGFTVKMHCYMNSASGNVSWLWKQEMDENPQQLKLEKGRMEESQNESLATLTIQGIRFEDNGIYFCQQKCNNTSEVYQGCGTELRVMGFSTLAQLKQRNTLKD
Description: (§2) 3) ELISA screening: the 96-well plates were correspondingly labeled before experiment, and coated with 1 μg/mL antigen at 50 μL per well in a refrigerator at 4° C. overnight. The next day, the coated antigen plates from the previous day were removed and washed once with a plate washer (cleaning solution: 1×PBST). After washing, the plates were blocked with 1% BSA blocking solution prepared in 1×PBST at 37° C. for 1 h. After being washed with 1×PBST cleaning solution for 3 times, the plates were added with 50 μL cell supernatant to be detected, and incubated in a 37° C. incubator for 1 h. After the plates were washed with 1×PBST cleaning solution for 3 times, added with 100 μL of goat anti-mouse secondary antibody diluted at 1:5000, and incubated in an incubator at 37° C. for 0.5 h. The plates were washed, the TMB color developing solution A solution and B solution in a ratio of 1:1 was taken for to color development. The color development reaction was terminated with 1 N hydrochloric acid for 15 min. Fluorescence value was read at 450 nm on a Spectra Max M5 multi-functional plate reader.
5) Hybridoma positive clone identification: after fusion and subclone screening of mouse splenocytes, multiple specific antibodies against human CD79B antigen were obtained, and the antibodies from the 17 strains of hybridomas having the highest binding to ELISA and FACS were produced and purified. […]

human CD79B [4] = molecular target: T1, human CD79B; assay: FACS of culture supernatant of anti-human CD79B hybridoma positive clones on DOHH2 cells; format: binding
Description: as §1, with “4)” for “3)”, “screening:” for “assay on anti-human CD79B mouse monoclonal antibodies:”, “the test cell supernatant” for “100 μL of antibody diluted 1:10 at 100 nM”, “60 min.” for “1 h.”
5) Hybridoma positive clone identification: after fusion and subclone screening of mouse splenocytes, multiple specific antibodies against human CD79B antigen were obtained, and the antibodies from the 17 strains of hybridomas having the highest binding to ELISA and FACS were produced and purified. Meanwhile, specific antibodies against monkey CD79B antigen were obtained, and the 4 strains of hybridomas having the highest binding to ELISA and FACS were taken for production and purification of antibodies. mIgG was used as negative control in the both assays.

human CD79B [5] = molecular target: T2, human CD79B; assay: ELISA assay on purified anti-human CD79B mouse monoclonal antibodies; format: binding
Description: as §2, with “2)” for “3)”, “assay on anti-human CD79B mouse monoclonal antibodies:” for “screening:”, “of diluted antibody at 1:10 at 100 nM,” for “cell supernatant to be detected,”

[6] = molecular target: T3, huTROP-2 on CHO-K1 cells over-expressing huTROP-2 protein (human, UniProt P09758 27-323); assay: activity verification on CHO-K1 cells over-expressing huTROP-2 (method not detailed)
T3 construct: No signal peptide cleavage is stated for this form; also called CHO-K1/hTROP-2
T3 sequence: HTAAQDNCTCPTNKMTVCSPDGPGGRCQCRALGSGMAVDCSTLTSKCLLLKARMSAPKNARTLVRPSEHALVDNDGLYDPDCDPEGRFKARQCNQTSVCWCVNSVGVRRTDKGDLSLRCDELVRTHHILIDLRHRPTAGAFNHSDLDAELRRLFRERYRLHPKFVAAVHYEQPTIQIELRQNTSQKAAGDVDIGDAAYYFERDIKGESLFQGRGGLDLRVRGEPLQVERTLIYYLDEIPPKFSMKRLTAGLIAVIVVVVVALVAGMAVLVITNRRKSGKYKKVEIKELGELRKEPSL

[7] = molecular target: T4, huTROP-2 protein (His27-Thr274 Accession #NP_002344.2) (human, UniProt P09758 27-274); assay: activity verification with huTROP-2 protein His27-Thr274 (method not detailed)
T4 sequence: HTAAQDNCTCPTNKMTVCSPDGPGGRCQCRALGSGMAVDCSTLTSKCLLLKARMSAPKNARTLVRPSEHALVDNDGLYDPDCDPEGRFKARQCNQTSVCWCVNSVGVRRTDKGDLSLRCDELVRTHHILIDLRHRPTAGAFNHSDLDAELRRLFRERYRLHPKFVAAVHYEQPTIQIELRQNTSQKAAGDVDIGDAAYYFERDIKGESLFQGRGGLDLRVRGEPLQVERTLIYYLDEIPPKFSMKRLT

FACS binding capacity (human CD79B [2]) | Results (OD450) (human CD79B [3]) | Mean fluorescence value (human CD79B [4]) | ELISA binding capacity (human CD79B [5]) | Molecule | further results
highest FACS binding capacity | 3.41 | 10036 | highest ELISA binding capacity | mAb015: anti-human CD79B mouse monoclonal antibody, VH SEQ ID NO: 3, VL SEQ ID NO: 4 (antibody, V domains shown) VH: QVQLQQSGAELARPGASVKLSCKASGSSFTSYGINWVKQRTGQGLEWIGEIFPRSGNTYYNEKFEGKATLTADKSSSTAYMELRSLTSEDSAVYFCAKGDLGDFDYWGQGTTLTVSS VL: DFLMTQTPLSLPVRLGDQASISCRSSQSIVHSDGNTYFEWYLQKPGQSPKLLIYKVSNRFSGVPDRFSGSGSGTDFTLKISRVEAEDLGVYYCFQGSHVPWTFGGGTKLEIK | 
highest FACS binding capacity | 3.80 | 8132 | highest ELISA binding capacity | mAb017: anti-human CD79B mouse monoclonal antibody, VH SEQ ID NO: 5, VL SEQ ID NO: 6 (antibody, V domains shown) VH: QVQLQQSGAELARPGASVKLSCKASGYTFTTYGINWVKQRTGQGLEWIGEIYPRSGNIYYNEKFKGKATLTADKSSSTAYMELRSLTSEDSAVYFCARGSDYDGDFAYWGQGTLVTVSA VL: DVLMTQTPLSLPVSLGDQASISCRSSQSIVHHDGNTYLEWYLQKPGQSPKLLIYKVSNRFSGVPDRFSGSGSGTDFTLKISRVEAEDLGVYYCFQGSHVPWTFGGGTQLEIK | 

Further lines, the molecule ahead of its results:

Molecule | FACS binding capacity (human CD79B [2]) | Results (OD450) (human CD79B [3]) | Mean fluorescence value (human CD79B [4]) | ELISA binding capacity (human CD79B [5]) | further results
polatuzumab [Polivy] |  |  |  |  | Tolerability in tumor-bearing mice ([1]; 1 mg/kg IV at D0, no significant weight loss): could well tolerate; Mean tumor volume (mean ± SEM) ([1]; D0, 1 mg/kg IV at D0): 108.07 ± 1.31 mm^3; Mean tumor volume (mean ± SEM) ([1]; D17, 1 mg/kg IV at D0): 550.88 ± 52.37 mm^3; T/C % ([1]; D17, 1 mg/kg IV at D0): 63%; Tumor inhibition rate (%) ([1]; D17, 1 mg/kg IV at D0): 37%
anti-TROP-2 antibody PD3 (antibody, human IgG1, kappa, V domains shown, also called anti-human TROP-2 monoclonal antibody) VH: EVQLVQSGSELKKPGASVKVSCKASGYTFTNYGMNWVKQAPGQGLKWMGWINTYTGEPTYTQDFKGRFAFSLDTSVSTAYLQISSLKAEDTAVYYCARGGFGSSYWYFDVWGQGTLVTVSS VL: DIQLTQSPSSLSASVGDRVSITCKASQDVSIAVAWYQQKPGKAPKLLIYSASYRYTGVPDRFSGSGSGTDFTLTISSLQPEDFAVYYCQQHYITPLTFGAGTKVEIKR |  |  |  |  | binding result [6]: binds; binding result [7]: binds
